T1: SMT3–Hairless NTCT fusion protein (residues 232–358) (Drosophila melanogaster, UniProt Q02308 232-358)
T1 sequence: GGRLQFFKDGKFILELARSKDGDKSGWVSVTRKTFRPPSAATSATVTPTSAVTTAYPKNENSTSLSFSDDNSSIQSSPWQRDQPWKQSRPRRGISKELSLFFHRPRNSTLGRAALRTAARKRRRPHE

B1: core Su(H) (amino acids 98–523) (domain or fragment)
chain: not shown
B2: Hairless NT (amino acids 232–269) (domain or fragment)
chain: GGRLQFFKDGKFILELARSKDGDKSGWVSVTRKTFRPP

How the values were obtained:
[1] = target: T1, SMT3–Hairless NTCT fusion protein …; test: ITC
[2] = target: B1; test: native gel or EMSA

Row | Binder | stoichiometry N [1] | binding result [2]
1 | B1 | 0.9 | –
2 | B2 | – | binds
